± gives the uncertainty stated by the source.
B1: PDZ and LIM domain protein 2, residues 284 to 339; numbered along this chain, Q96JY6 (parent)
chain: HTCEKCSTSIANQAVRIQEGRYRHPGCYTCADCGLNLKMRGHFWVGDELYCEKHAR

Variants of: B1
Assay: abundance fitness (aPCA) (normalised: wild type 0, dead -1); higher = more abundant; growth selection in yeast, the domain comes from the species named
Conditions: Homo sapiens

Variant | abundance fitness
HTSEKCSTSIANQAVRIQEGRYRHPGCYTCADCGLNLKMRGHFWVGDELYCEKHAR [C3S] | -0.693 ± 0.11
HTCEKCSTSIPNQAVRIQEGRYRHPGCYTCADCGLNLKMRGHFWVGDELYCEKHAR [A11P] | 0.118 ± 0.11
HTCEKASTSIANQAVRIQEGRYRHPGCYTCADCGLNLKMRGHFWVGDELYCEKHAR [C6A] | -0.408 ± 0.14
HTCEKCSTSIANQAVRIQEGRYRHPGCYTCADCGLNLKMRGHFWVTDELYCEKHAR [G46T] | -0.202 ± 0.095
HTCEKCSTSIANQAVRIQEGRYRHPGCYTCADCGLNLKMRGHRWVGDELYCEKHAR [F43R] | -0.138 ± 0.071
HTCEKCSTSIANQAVRIQEGRYRHPGCYTCADCGLNLKMRGHGWVGDELYCEKHAR [F43G] | -0.048 ± 0.049
HTCEKCSTSIANQAVRIQEGRYRHPGCYTCADCGLNLKMRGHKWVGDELYCEKHAR [F43K] | -0.381 ± 0.12
HTCEKCSASIANQAVRIQEGRYRHPGCYTCADCGLNLKMRGHFWVGDELYCEKHAR [T8A] | 0.308 ± 0.06
HTCEKCSLSIANQAVRIQEGRYRHPGCYTCADCGLNLKMRGHFWVGDELYCEKHAR [T8L] | 0.004 ± 0.063
HRCEKCSTSIANQAVRIQEGRYRHPGCYTCADCGLNLKMRGHFWVGDELYCEKHAR [T2R] | -0.389 ± 0.091
HTCEKCSTSIANQAVRIQEGMYRHPGCYTCADCGLNLKMRGHFWVGDELYCEKHAR [R21M] | 0.035 ± 0.12
HTCEKCSTSIANQAVRIQEGGYRHPGCYTCADCGLNLKMRGHFWVGDELYCEKHAR [R21G] | -0.251 ± 0.058
HTCEKCSTSIANQAVRIQEGPYRHPGCYTCADCGLNLKMRGHFWVGDELYCEKHAR [R21P] | -0.101 ± 0.11
HTCEKCSTSIANQAVRIQEGVYRHPGCYTCADCGLNLKMRGHFWVGDELYCEKHAR [R21V] | 0.11 ± 0.099
HTCEKCSTSIANQAVRIQEGRYRHPGCYTCADCGLNVKMRGHFWVGDELYCEKHAR [L37V] | -0.109 ± 0.064
HTCEKCSTSIANQAVRIQEGRYRHPGCYTCADCGLNTKMRGHFWVGDELYCEKHAR [L37T] | -0.395 ± 0.12
HTCEKCSTSIANQAVRCQEGRYRHPGCYTCADCGLNLKMRGHFWVGDELYCEKHAR [I17C] | -0.453 ± 0.098
HTCEKCSTSIANQAVRAQEGRYRHPGCYTCADCGLNLKMRGHFWVGDELYCEKHAR [I17A] | -0.341 ± 0.1
HTCEKCSTSIANQAVRIQEGRYRHPGCYTCADCGLNLKMRVHFWVGDELYCEKHAR [G41V] | -0.434 ± 0.088
HTCEKCSTSIANQAVRIQEGRYRHPGCYTCADCGLNLKMRGHFWVGDELYKEKHAR [C51K] | -0.839 ± 0.26
HTCEKCSTSIANQAVRIQEGRYRHPGCYTCADCGLNLKMRGHFWVGDELYTEKHAR [C51T] | -1.16 ± 0.27
HTCEKCSTSIANQAVRIQEGRYRHPGCYTCADCGLNLKMRGHFWVGDELYREKHAR [C51R] | -0.969 ± 0.095
HTCEKCSTSIANQAVRIQEKRYRHPGCYTCADCGLNLKMRGHFWVGDELYCEKHAR [G20K] | -0.023 ± 0.17
HTCEKCSTSIANQAVRIQENRYRHPGCYTCADCGLNLKMRGHFWVGDELYCEKHAR [G20N] | 0.006 ± 0.081

Variant | abundance fitness
HTCEKCSTSIANQAVRIQEYRYRHPGCYTCADCGLNLKMRGHFWVGDELYCEKHAR [G20Y] | -0.174 ± 0.082
HTCEKCSTSIANQAVRIQELRYRHPGCYTCADCGLNLKMRGHFWVGDELYCEKHAR [G20L] | -0.452 ± 0.087
HTCEKCSTSDANQAVRIQEGRYRHPGCYTCADCGLNLKMRGHFWVGDELYCEKHAR [I10D] | -0.041 ± 0.11
HTCEKCSTSIANQAVRIQEGRYRHPGCYTCADCGLNLKMRGHFCVGDELYCEKHAR [W44C] | 0.005 ± 0.15
HTCEKCSTSIANQAVRIQEGRYRHPGCYTCADCGLNLKMRGHFRVGDELYCEKHAR [W44R] | -0.045 ± 0.073
HTCEKCSTSIANQAVRIQEGRYRHPGCYTCADCGLNLKMRGHFIVGDELYCEKHAR [W44I] | 0.352 ± 0.14
HTCEKCSTSIANQAVRIQEGRYRHPGCYTCADCGLNLKMRGHFFVGDELYCEKHAR [W44F] | 0.025 ± 0.12
HTCEKCSTSIANQAVRIQEGRYRHPGCYTCADCGLNLKMRGHFEVGDELYCEKHAR [W44E] | 0.139 ± 0.092
HTCEKCSTSIANQAVRIQEGRYRHPGCYTCADCGLNLKMRGHFWVGDEMYCEKHAR [L49M] | -0.205 ± 0.13
HTCEKCSTSIAKQAVRIQEGRYRHPGCYTCADCGLNLKMRGHFWVGDELYCEKHAR [N12K] | -0.295 ± 0.073
HTCEKCSTSIAWQAVRIQEGRYRHPGCYTCADCGLNLKMRGHFWVGDELYCEKHAR [N12W] | -0.78 ± 0.15
HTCEKCSTSIAIQAVRIQEGRYRHPGCYTCADCGLNLKMRGHFWVGDELYCEKHAR [N12I] | 0.021 ± 0.12
HTCEKCSTSIANQAVRIQEGRYRHPGCYTCADCGLNLKMRGHFWVGDELYCEEHAR [K53E] | 0.235 ± 0.094
HTCEKCSTSIANQAVRIQEGRYRHPGCYTCADCGLNLKMRGHFWVGDELYCEIHAR [K53I] | -0.275 ± 0.18
HTCEKCSTSIANQAVRIQEGRYRHPGCYTCADCGLNLKMRGHFWVGDELYCECHAR [K53C] | -0.377 ± 0.16
HTCEKCSTSIANQAVRIQEGRYRHPGCNTCADCGLNLKMRGHFWVGDELYCEKHAR [Y28N] | -0.294 ± 0.12
HTCEKCSTSIANQAVRIQEGRYRHPGCETCADCGLNLKMRGHFWVGDELYCEKHAR [Y28E] | -0.548 ± 0.16
HTCEKCSTSIANQAVRIQEGRYRHPGCATCADCGLNLKMRGHFWVGDELYCEKHAR [Y28A] | -0.076 ± 0.063
HTCEKCSTSIANQAVRIQEGRYRHPGCYTCADCGLNLCMRGHFWVGDELYCEKHAR [K38C] | -0.24 ± 0.083
HTCEKCSTSIANQAVRIQEGRYRHPGCYTCRDCGLNLKMRGHFWVGDELYCEKHAR [A31R] | 0.047 ± 0.067
HTCEKCSTSIANQAVRIQEGRYRHVGCYTCADCGLNLKMRGHFWVGDELYCEKHAR [P25V] | -0.169 ± 0.072
HTCEKCSTSIANQAVRIQEGRYRHAGCYTCADCGLNLKMRGHFWVGDELYCEKHAR [P25A] | 0.113 ± 0.093
HTCEKCSTSIANQAVRIQEGRYRHTGCYTCADCGLNLKMRGHFWVGDELYCEKHAR [P25T] | -0.09 ± 0.095
